# Measurements taken from patent US20190201542A1 (AbbVie / Abbott, published 2019).
# Where a chain is given by its changes, count along the chain named.
# T1: human DLL3 (human, UniProt Q9NYJ7 27-492, limits assumed)
# T1 construct: also called hDLL3; DLL3 protein
# T1 sequence: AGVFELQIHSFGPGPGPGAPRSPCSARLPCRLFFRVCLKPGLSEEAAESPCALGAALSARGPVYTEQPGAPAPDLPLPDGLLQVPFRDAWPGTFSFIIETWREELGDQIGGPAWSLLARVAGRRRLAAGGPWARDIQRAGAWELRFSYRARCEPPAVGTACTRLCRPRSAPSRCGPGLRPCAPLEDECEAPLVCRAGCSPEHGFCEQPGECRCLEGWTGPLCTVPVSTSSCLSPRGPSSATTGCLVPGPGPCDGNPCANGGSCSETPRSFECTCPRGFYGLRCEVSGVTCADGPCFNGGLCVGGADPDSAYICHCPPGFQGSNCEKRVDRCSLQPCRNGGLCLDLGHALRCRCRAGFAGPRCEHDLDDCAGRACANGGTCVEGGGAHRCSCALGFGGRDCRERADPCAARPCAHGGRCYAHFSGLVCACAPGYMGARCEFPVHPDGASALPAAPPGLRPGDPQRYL
# B1: SC16.124 (antibody, V domains shown)
# VH: EVQLQQSGPELVKPGASVKMSCKASGYTFTSYVMHWVKQKPGQGLEWIGYINPYNDGTKYNEKFKGKATLTSDKSSSTAYMELSSLTSEDSAVYYCARGALYYGNYLGYFDVWGAGTTVTVSS
# VL: DIQMTQSPASQSASLGESVTITCLASQTIGTWLAWYQQKPGKSPQLLISAATSLADGVPSRFSGSGSGTKFSFKISSLQAEDFVSYYCQQLYSTPWTFGGGTKLEIK
# notes: murine mAb
# B2: SC16.132 (antibody, V domains shown)
# VH: QVQLKESGPGLVAPSQSLSITCTVSGFSLTDYGVSWIRQPPGKGLEWLGVVWGGGSTYYNSALKSRLSITKDNSKSQVFLKMNSLQTDDTAMYYCAKQRGQYGAYWGQGTLVTVSA
# VL: B1 VL with S49Y
# notes: murine mAb
# B3: SC16.129 (antibody, V domains shown)
# VH: B2 VH with V51I, T70S, K81E, M82L, M92I, Q98H, R99Y, Q101H, G103A
# VL: B1 VL with S49Y, W96Y
# notes: murine mAb
# B4: SC16.106 (antibody, V domains shown)
# VH: QVQLKQSGPGLVAPSQSLFITCTVSGFSLTSYEINWVRQPPGKGLEWLGVIWTGGSTNYNSALISRLSISKDNSKSLVFLKMNSLQTDDTAIYYCVRGVYAMDYWGQGTSVTVSS
# VL: DIKMTQSPSSMYASLGERVTITCKASQDINSYLSWFQQKPGKSPKTLIYRANRLVDGVPSRFSGSGSGQDYSLTISSLEYEDMGIYYCLQYDEFPFTFGSGTKLEIK
# notes: murine mAb
# B5: SC16.114 (antibody, V domains shown)
# VH: EVQLQQSGAELVKPGASVKLSCTASGFNIKDTYIHWVKQRPEQGLEWIGRIDPANGNTKYDPKFQGKATITPDTSSNTAYLQLSSLTSEDTAVYYCARSWRNYGSSFWYFDVWGAGTTVTVSS
# VL: QIVLSQSPAILSASPGEKVTMTCRASSSVSYMHWYQQKPGSSPKPWIYATSNLASGVPARFSGSGSGTSYSLTISRVEAEDAATYYCQQWSSNPYTFGGGTKLEIK
# notes: murine mAb
# B6: SC16.121 (antibody, V domains shown)
# VH: EVQLVESGGGLVQPKGSLKLSCAASGFTFNTYAMNWVRQAPGKGLEWVARIRIKSNNYATYYADSVKDRFTISRDDSQNMLYLQMNNLKTEDTAVYYCVRQGYSYDWGPWFAYWGQGTLVTVSA
# VL: QIVLTQSPAIMSASPGEKVTITCSASSSVSYMHWFQQKPGTSPKLWIYSTSNLASGVPARFSGSGSGTSYSLTISRMEAEDAATYYCQQRSSYPPTFGGGTKLEIK
# notes: murine mAb
# B7: SC16.11 (antibody, V domains shown)
# VH: QIQLVQSGPELKKPGETVKISCKASGYTFTDYSMHWVKQAPGKGLKWMGWINTETVEPTYADDFMGRFAFSLETSASTAFLQINNLENEDTATYFCARFGSYAMDYWGQGTSVTVSS
# VL: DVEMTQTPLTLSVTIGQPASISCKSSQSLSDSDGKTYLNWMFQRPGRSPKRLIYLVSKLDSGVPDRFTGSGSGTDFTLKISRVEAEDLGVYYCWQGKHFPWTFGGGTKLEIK
# notes: murine mAb
# B8: SC16.10 (antibody, V domains shown)
# VH: QVTLKESGPGILQSSQTLSLTCSFSGFSLSTSGMGVGWIRQPSGKGLEWLAHIWWDDVKRYNPVLKSRLTISKDTSSSQVFLKIASVDTADTATYYCARLVDDLYYFDYWGQGTTLTVSS
# VL: QIVLTQSPAIMSASLGERVTMTCTASSSVSSSYLHWYQQKPGSSPKLWIYSTSNLASGVPTRFSGSGSGTSYSLTISSMEAEDAATYYCHQYHRSPFTFGSGTKLEIK
# notes: murine mAb
# B9: SC16.123 (antibody, V domains shown)
# VH: QVALKESGPGILQPSQTLSLTCSFSGFSLSTSGMGVGWIRQPSGKGLEWLAHIWWDDVKRYNPALKSRLTISKDTSSSQVFLKIASVDTADTATYYCARMEDYGSSSYFDFWGHGTTLTVSS
# VL: B8 VL with T61A, A81T
# notes: murine mAb
# B10: SC16.107 (antibody, V domains shown)
# VH: EVQLQQSGPELVKPGASVKMSCKASGYTFTNYVMHWVKQKPGQGLEWIGYINPYNDGTKYNEKFKGKATLTSDKSSTTAYMALSSLTSEDSAVYYCAVAYYSNWGFAYWGQGTLVTVSA
# VL: DIVMTQSHKFMSTSVGDRVSITCKASQDVNTAVGWYQQKPGQSPKLLIYSASYRYTGVPDRFTGSGSGTDFTFTISSVQAEDLAVYYCQQHYSSPYTFGGGTKVEIK
# notes: murine mAb
# B11: SC16.139 (antibody, V domains shown)
# VH: B10 VH
# VL: B10 VL with V104L
# notes: murine mAb
# B12: SC16.122 (antibody, V domains shown)
# VH: EVQLVESGGGLVKPGGSLKLSCAASGFTFSDYYMFWVRQTPEKRLEWVATISDGGSYTYFPDSVKGRFTISRDNAQNNLYLQMSSLKSEDTAMYYCARAGTLYAMDYWGQGTSVTVSS
# VL: DIVMTQSQKFMSTSVGDRVSVTCKASQNVGTNVAWYQQKPGQSPKVLIYSASYRYSGVPDRFTGSGSGTDFTLTISNVQSEDLAEFFCQQYNSYPLTFGGGTKLEIK
# notes: murine mAb
# B13: SC16.111 (antibody, V domains shown)
# VH: EVQLQQSGPELEKPGASVKISCKASGYSFTGYNMNWVKQSNGKSLEWIGNIDPYYGGSSYKQKFEGKATLTVDKSSSTAYMQLKSLTSEDSAVYYCARGGSNFFDYWGQGTTLTVSS
# VL: DIQMTQSPASLAASVGETVTITCRASENIYYSLAWYQQKQGKSPQLLIYNANSLEDGVPSRFSGSGSGTQYSMKINSMQPEDTATYFCKQTYDVPLTFGAGTKLELK
# notes: murine mAb
# B14: SC16.116 (antibody, V domains shown)
# VH: QVQLKQSGPGRVQPSQSLSITCTVSGFSLTSNGVHWVRQSPGKGLEWLGVLWSGGSTDYNAAFISRLSISKDNYKSQVFFKMNSLQANDTAIYYCARNNNRYGAMDYWGQGTSVTVSS
# VL: DIVMTQSPSSLTVTAGEKVTMSCTSSQSLLTSGNQKNYLTWYQQKPGQPPKLLIYWASTRESGVPDRFTGSGSGTDFTLTISSLQAEDLAVYYCQNDYSLTFGAGTKLELK
# notes: murine mAb
# B15: SC16.110 (antibody, V domains shown)
# VH: EVQLQQSGPGLVRTGASVKISCKASGYSFTGYYMHWVKQSHGKSLEWIGYISCYNGATTYNQNFKGKATFIVDTSSSTAYMQFNSLTSEDSAVYYCARSDGGHAMDYWGQGTSVTVSS
# VL: NIVMTQTPKFLLVSAGDRVTITCKASQSVSNDVAWYQQKPGQSPKLLIYYASNRYTGVPDRFTGSGYGTDFTFTISTVQAEDLAVYFCQQDYSSPPTFGGGTKLEIK
# notes: murine mAb
# B16: SC16.109 (antibody, V domains shown)
# VL: QIVLTQSPAIMSASPGEKVTMTCSASSSVSYMYWYQQKPGSSPRLLIYDTSNLASGVPVRFSGSGSGTSFSLTISRMEAEDTATYYCQEWSGNPLTFGDGTKLELK
# V domain: QIQLVQSGPELKKPGETVKISCKASGYTFTNYGMNWVKQAPGKGLKWMGWINTYTGEPAYADDFKGRFAFSLETSASAAYLQINNLKNEDTATFFCANMRPTRGFAYWGQGTLGTVSA
# notes: murine mAb
# B17: SC16.117 (antibody, V domains shown)
# VH: QVQLKESGPGLVAPSQSLSITCTVSGFSLTNYGVHWVRQPPGKGLEWLGVIWAGGITNYNSALMSRLSISEDNSKSQVFLKMNSLQTDDTAMYYCARNLGPYAMDYWGQGTSVTVSS
# VL: DIQMNQSPSSLSASLGDTITITCHVSQNINVWLSWYQQKPGNIPKLLIQKASNLHTGVPSRFSGSGSGTGFTLTISSLQPEDIATYYCQQGQSYPFTFGSGTKLEIK
# notes: murine mAb
# B18: SC16.126 (antibody, V domains shown)
# VH: QVQMKESGPGLVAPSQSLSITCTVSGSSLTNYGVHWVRQPPGKGLEWLGVIWAGGSTNYNSALMSRLSISKDNSKSQVFLKMNSLQTDDTAMYYCARDWEGWFAYWGQGTLVTVSA
# VL: B17 VL with V25A, Q49Y
# notes: murine mAb
# B19: SC16.149 (antibody, V domains shown)
# VH: B18 VH with M4L, T23A, S27F, N31S, Y32F, N60Y, K71I
# VL: B17 VL with V25A, Q49Y, N53H, F62L, K103T
# notes: murine mAb
# B20: SC16.118 (antibody, V domains shown)
# VH: EVQLQQSGPDLVKPGASVKISCKASGYSFTGYYMHWVKQSHGKSLEWIGRVNPNNGGTSYNQKFKGKAILTADKSSSTAYMELRSLTSEDSAVYYCARGSYDYAEGWGQGTLVTVSA
# VL: DIVLTQSPASLAVSLGQRATISCKASQSVDYDGDSYLTWYQQKPGQPPKLLIYAASNLESGIPARFSGSGSGTDFTLNIHPVEEEDAATYYCQQSNEDPYTFGGGTKLEIK
# notes: murine mAb
# B21: SC16.134 (antibody, V domains shown)
# VH: B20 VH with S44R, S59N, A72V, Y103N
# VL: B20 VL with Y31H, D32A, L37M, T38N
# notes: murine mAb
# B22: SC16.113 (antibody, V domains shown)
# VH: DVKLVESGGGLVKPGGSLKLSCAASGFTFSSYTMSWVRQTPEKRLEWVATISSGGSYPYYPDSVKGRFTISRDNAKNTLYLQMSSLKSEDTAMYYCTRDVYDGYSYWGQGTTLTVSS
# VL: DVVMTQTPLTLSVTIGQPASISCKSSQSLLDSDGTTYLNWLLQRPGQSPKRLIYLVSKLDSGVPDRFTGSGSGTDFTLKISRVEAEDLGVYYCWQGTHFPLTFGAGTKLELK
# notes: murine mAb
# B23: SC16.115 (antibody, V domains shown)
# VH: B22 VH
# VL: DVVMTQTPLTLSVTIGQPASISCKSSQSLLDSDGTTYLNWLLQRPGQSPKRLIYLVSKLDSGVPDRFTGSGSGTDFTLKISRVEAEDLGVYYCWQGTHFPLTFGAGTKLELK
# notes: murine mAb
# Target: T1, human DLL3
# Test: screen on immobilized hDLL3 or h293-hDLL3 cells
# Procedure, shortened: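 Hybridoma supernatants from single cells of mice immunized with human DLL3 were screened after 10 days in culture. Binding by flow cytometry was scored positive when above the control. In the solid-phase ELISA, plates coated with DLL3-His at 0.5 μg/ml were probed with HRP anti-mouse IgG and TMB and read at OD 450.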
row,binding result,Binder
1,binds,B1
2,binds,B2
3,binds,B3
4,binds,B4
5,binds,B5
6,binds,B6
7,binds,B7
8,binds,B8
9,binds,B9
10,binds,B10
11,binds,B11
12,binds,B12
13,binds,B13
14,binds,B14
15,binds,B15
16,binds,B16
17,binds,B17
18,binds,B18
19,binds,B19
20,binds,B20
21,binds,B21
22,binds,B22
23,binds,B23
